Columns and labels:
Assay in all cases: cell-based or functional assay
Connexin 43 (human) = Connexin 43 (human) (UniProt P17302)
Connexin 37 (human) = Connexin 37 (human) (UniProt P35212)
Connexin 40 (human) = Connexin 40 (human) (UniProt P36382)
UniProt P36382, sequence (P36382 whole entry): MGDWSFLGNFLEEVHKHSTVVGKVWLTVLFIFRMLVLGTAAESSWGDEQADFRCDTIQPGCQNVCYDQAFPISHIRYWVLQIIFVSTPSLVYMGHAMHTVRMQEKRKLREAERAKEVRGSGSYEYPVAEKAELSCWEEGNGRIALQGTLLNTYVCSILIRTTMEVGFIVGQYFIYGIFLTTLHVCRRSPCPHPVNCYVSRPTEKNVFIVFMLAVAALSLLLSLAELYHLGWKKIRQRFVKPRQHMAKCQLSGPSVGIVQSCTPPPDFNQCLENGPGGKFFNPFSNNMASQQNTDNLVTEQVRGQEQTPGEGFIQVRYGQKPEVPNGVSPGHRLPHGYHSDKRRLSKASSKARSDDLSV

UniProt P35212, sequence (P35212 whole entry): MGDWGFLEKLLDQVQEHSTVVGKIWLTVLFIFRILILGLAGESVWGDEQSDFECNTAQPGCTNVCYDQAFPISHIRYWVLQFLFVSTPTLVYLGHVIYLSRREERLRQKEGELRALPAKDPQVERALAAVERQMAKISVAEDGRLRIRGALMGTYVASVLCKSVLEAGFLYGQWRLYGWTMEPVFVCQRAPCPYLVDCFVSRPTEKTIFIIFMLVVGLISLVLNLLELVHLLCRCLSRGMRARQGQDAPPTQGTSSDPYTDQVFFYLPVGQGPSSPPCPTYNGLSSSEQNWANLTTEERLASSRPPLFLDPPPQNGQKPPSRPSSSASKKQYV
UniProt P17302, sequence (P17302 2-382): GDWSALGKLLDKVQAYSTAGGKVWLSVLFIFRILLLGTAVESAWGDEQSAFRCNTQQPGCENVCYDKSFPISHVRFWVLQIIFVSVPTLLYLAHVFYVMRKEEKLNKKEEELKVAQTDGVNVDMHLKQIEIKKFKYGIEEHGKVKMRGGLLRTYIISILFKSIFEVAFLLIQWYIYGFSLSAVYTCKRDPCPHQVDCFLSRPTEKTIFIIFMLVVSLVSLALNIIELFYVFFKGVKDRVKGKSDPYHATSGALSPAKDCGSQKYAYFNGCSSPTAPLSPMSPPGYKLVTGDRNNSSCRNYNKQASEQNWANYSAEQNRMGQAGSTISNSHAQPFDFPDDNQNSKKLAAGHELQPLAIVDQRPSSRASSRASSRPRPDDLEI

Cx mimetic peptide 43,37Gap27
Lucifer Yellow dye-coupling (GJIC) in HAEC after 16 hours of flow (Connexin 43 (human)): 26%
decrease in flow-induced GJIC (dye-coupling) in HAEC (Connexin 43 (human)): 25%
Lucifer Yellow dye-coupling (GJIC) in HAEC after 16 hours of flow (Connexin 37 (human)): 26%
decrease in flow-induced GJIC (dye-coupling) in HAEC (Connexin 37 (human)): 25%

mimetic peptide 40Gap27
decrease in Lucifer Yellow dye-coupling (GJIC) in HAEC after 5 hours of flow (Connexin 40 (human)): 33%
decrease in Lucifer Yellow dye-coupling (GJIC) in HAEC after 16 hours of flow (Connexin 40 (human)): 57%

— patent publication US20070280985A1
